From patent US20250188193A1 (ROCKEFELLER UNIVERSITY, published 2025)
Where a chain is given by its changes, count along the chain named.

How the values were obtained:
[1] = molecular target: T1, anti-NP antibody 3B62, afucosylated IgG (monomeric, or as immune complex with NP-BSA) (chain 1 pos 82 (Asn297 EU): afucosylated N-glycan; the Fc is a disulfide-linked homodimer; in FIG. 11E it is complexed with NP-BSA through the Fab arms); assay: competition ELISA: nanobody pre-complexed with monomeric afucosylated 3B62, then captured on coated FcγRI; the blocked ligand is FcγRI
T1 construct: Immune complexes made with NP-BSA (27 conjugations) at a 10:1 molar ratio; also called monomeric 3B62; IgG immune complexes
Method: Recombinant FcγR ectodomains were expressed in Expi-293F and purified with Ni-NTA resin as in previously described protocols (S. Chakraborty et al., Sci. Transl. Med., eabm7853 (2022)). […] Plates were then blocked with PBS plus 2% (w/v) BSA. IgG immune complexes were prepared by incubation of an anti-NP (4-hydroxy-3-nitrophenylacetyl) antibody 3B62 with NP-BSA (27 conjugations) at a 10:1 molar ratio for 1h at 4° C. […] IgG immune complexes or monomeric 3B62 were brought to a concentration of 20 ug ml⁻¹ or 2 μg/ml respectively and pre-complexed at a 1:1 (v/v) ratio for 1h at room temperature and then captured on FcγR-coated plates. Following 1h incubation, bound IgG was detected using a 1:5000 dilution of horseradish peroxidase (HRP)-conjugated goat F(ab′)₂ anti-human IgG (H+L) (Jackson Immunoresearch). Plates were developed with TMB (3,3′,5,5′-tetramethylbenzidine) two-component peroxidase substrate kit. Reactions were quenched with 1M phosphoric acid. Absorbance at 450 nm was recorded using a SpectraMax Plus spectrophotometer (Molecular Devices). Background absorbance was subtracted for samples, and % maximum binding was determined against an IgG or immune complex only control.

[2] = molecular target: T2, aglycosylated 3B62 N297A mutant (aglycosylated (no N-glycan after N297A); the Fc is a disulfide-linked homodimer); assay: SPR (Biacore T200)
T2 construct: 297 is an EU position, not a position on the UniProt entry; also called aglycosylated N297A IgG1 mutant; aglycosylated IgG
Method: Traces are raw data, while 1:1 Langmuir global kinetic fits are shown in black.
Surface Plasmon Resonance (SPR) was performed on a Biacore T200 machine (Cytiva Life Sciences). In some experiments, purified IgG glycoforms diluted in HBS-EP+ were immobilized on the surface of a Protein A or Protein G CM5 sensor chip at 1000 RU (˜50 nM). Purified nanobodies were flowed over IgG-bound sensor chips at the indicated concentrations at 30 uL/minute for 60 seconds, followed by 600 seconds of dissociation. Sensor chips were regenerated with 10 mM Glycine-HCl pH 1.5.

[3] = molecular target: T3, IgG1 S2G2 glycoform (antibody clone not named); assay: ELISA with B7; the concentration of the IgG1 glycoform is varied
T3 construct: also called afucosylated form of IgG1

[4] = molecular target: T4, Rituximab G2 (galactosylated afucosylated glycoform); assay: SPR (Biacore T200), 1:1 Langmuir kinetic fit
T4 construct: Whole IgG1; also called G2-Rituximab; G2 glycoform of IgG1 Fc

B1: X0 (VHH)
VHH: QVQLQESGGGLVQAGGSLRLSCAASPGISRYKTMGWYRQAPGKERSFVAAITWGGLTYYADSVKGRFTVSRDNAKNTVYLQMNSLKPEDTAVYYCSVDGGTRADPYHYYWGQGTQVTVSS
notes: also called clone X0; not shown: His tag and AviTag from the pET26-b(+) construct
[1]
  IC50 (read off the curve): ~1000 nM

B2: mC11 (VHH)
VHH: B1 VHH with S29Y, M34I, G35A, Y59R, D104Q, Y106V
notes: also called clone mC11; not shown: His tag and AviTag from the pET26-b(+) construct
[1]
  IC50 (read off the curve): ~400 nM

B3: B7 (VHH, not shown: small tags and cut ends)
VHH: B1 VHH with P26G, S46E, A50G, L56S, V69I, R102Y
notes: also called clone B7; nanobody B7
[2]
  binding result: no binding (tested: top concentration 256 nM)
[3]
  EC50 (read off the curve): ~0.4 µg/mL

B4: C11 (VHH, not shown: small tags and cut ends)
VHH: B1 VHH with P26G, G27Y, K32H, S46E, A50G, L56S, V69I, S96A, R102Y
notes: also called clone C11; C11 parental clone
[4]
  Kd: 22800 nM
